Source: publication PMC12137362, “OsAPSE modulates non-covalent interactions between arabinogalactan protein O-glycans and pectin in rice cell walls” (Frontiers in Plant Science, 2025)

Test system: O=[N+]([O-])c1ccc(O[C@H]2O[C@H](CO)[C@H](O)[C@H](O)[C@H]2O)cc1
Assay: cells, lysate or membranes
Conditions: Tris-HCl pH 8, 25 °C, unpurified cell-free expression reaction, final substrate 0.5-50 mM

Q: “GH27_OsAPSE (GH27 domain of OsAPSE) (Oryza sativa Japonica Group)” was tested. Which Km did it give?
A: 670 µM
